Data taken from article PMC9256709.

Molecular target: AGL6 fused to YFP or CFP (Arabidopsis thaliana) (UniProt P29386)
Experiment: FRET or BRET; in vivo FRET on the FYL1-AGL6-AGL6-AGL15 tetramer: one CFP and one YFP fusion co-expressed with the unlabeled other members in tobacco leaf cells; steady-state FRET efficiency in nuclei

UniProt P29386, sequence (P29386 whole entry, the tested form may be a part): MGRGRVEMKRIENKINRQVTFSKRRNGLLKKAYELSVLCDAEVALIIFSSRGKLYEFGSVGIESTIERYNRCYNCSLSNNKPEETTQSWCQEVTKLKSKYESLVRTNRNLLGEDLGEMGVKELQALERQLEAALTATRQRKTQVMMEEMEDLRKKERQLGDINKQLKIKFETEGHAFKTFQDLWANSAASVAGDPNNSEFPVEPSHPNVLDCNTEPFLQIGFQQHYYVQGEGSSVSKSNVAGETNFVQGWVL

FYF-like 1 (FYL1/AGL71) fused to CFP or YFP (from UniProt Q9LT93 1-207) (natural protein)
FRET efficiency (AGL6:CFP/FYL1:YFP, unlabeled AGL15 co-expressed): 32%
